Laboratory results: the DeepSol protein solubility set

Assay: soluble on expression in E. coli; label from the status in PepcDB or PDB records

Soluble on expression in E. coli, not soluble:
MGSDKIHHHHHHMELRVGGAKPSDNSPAASKGFSDPLDSHGVPGRSKQYLIHSAFTGTIGGVAMAYVDWAIKGPKIASCSCDYGCPCEFNGKPTEGLCEGLECMLIEEGWFGDLRLDGLKVAAVYRWPGPVHEGGGVVRGFFDANADQAQIDALFTILGGKEQEPTTVFNIYGSTIAQELEPIFAPIEFHSDIEKRTGGFRIDGHLELELEPIRNPVTGAPHRARIVLPEGFEFRQAEIASGTFNANGEIAMGRQKRYGALWRAAYGPYGIIEE, MGSDKIHHHHHHMENIESSFIDLPNPRKDIEDLQPYSAPLEGRRNLLRLDFNENTIGPSPLVIKSLREISRDEISAYPEYSGLKEKVVESLIKKNSNVNINSSEVGIFNGVDAAINAIFHAYGNFDDLMLTTLPTFGYYTPCAQMRGMQIKAIPYEGEGFQYPFDSICEFLTQNNPKILLICNPNNPTGTRLSPERIIEISKLSSKTLVVVDELYEAFTGDSVLPFLNFQTTPNLVVLRSLSKTAGLASLRIGFAIGHSKVINIVNRVTGPYDVNSFAVIAAFAALNDQSYIDSYVQEVLEARNWIKDQFEKHHVKHHIDGGNYFLLWPKSKPQLVEQKLKSSGILIRNMDKKKNLKGSIRVSIGTIDQMKRFWSAFRIVDEV, MGSDKIHHHHHHMERHNAIPIYDAELPLTSGVIPLVAGLTMPGCLRDASPDAWGRRVILNKRFGKTALQIDPGSIDELSYLIESGSDRIGALDFQRSPTEYIPRLASGAPLEELIKAAELVEKGVPLTPELAQALQHGTSIGGARPKALVQSDNHKFIAKFSTSTDLYSVVKAEFIAMKLALMAGLHVAPVNLLQVAGKDVLMVERFDRVAAPAGWQRKGIVSALTMLQLDEMMARYASYHDLANLVRQRFMRAPSTLRELFSRLAFNILIGNTDDHARNHAAFWDGRMLQLTPAYDICPQSRTGRTASQAMQISDGQNSSQITTCLKAAPHFLLNEAEAGLIIEGQIRCIEENWPTICEEADLSEIDRNLMWRNQVLNPFAFEGLEGSSLERLAKKYR, MGSDKIHHHHHHMETDMPADMIQPLCEIDDLRIGFHGHDGALTEAVRGLSLTLHRGERLGIVGESGSGKSLTGRALLGLLPPAAQYRAKAMTFDGQDLLSMSARKRRQLCGQQMGMILQDPKYSLNPVMTVAQQMREVFDLHGPKLGRREMREQIIAALAAVHIRNPERVADAYPHELSGGMGQRVMIAMMVSSGPRLLVADEPTSALDVLVSMQVLGILDEMIEKHHTGLIFISHDLPLVMSFCDRVVVMFAGRVVETCAARDLVHARHPYTRGLLAASPPLIDPPDQLPVLKPDPAWLTQPAGASA, MGSDKIHHHHHHMETDRLIIMDKLRAMRMFVRVVDAGSFSRVANELNVTTSMISKEIGRLEEDLGVRLLHRSTRGQQLTSIGEGYLKRCRELLVQVDDADAYVQHMQENPRGKLRINAPMALGITDLSQLFSAYMKQYPDVELDIQLGDESLDLIEHGFDLGFRASSQMLDSNYVGKPLVSFTYKVCASASYLESHPPIREVEDLAAHNCFVYSYFKSGNFWPLAQGITVAGSLKVNSTLFMKQVIEDGLGIGFLPSFVAREGIEQGKLVEVLPEVGRPDLTLYALYPNRLFTPPKLLSCIEFLQSWFLSRNLDEGWLQ, MGSDKIHHHHHHMETLYLKTLIVTAEKGSFSKAAAELCITQSAVSQRVKFLEERYGCELLDRSGPVMMLTAAGEAVVRKAQAILDIEKTLQDELKKFTGRQRLSICCTPSFGIAHMPKVLNRFMLRNADIVDLKFMFYSPEQAVKGLAEREFDIGIIEHCEDLDLADFHTATLPRDELVFVSAPSLGIPTPLVTIERLFEERLITRKDGCSSKKLLRLNLASIGKDLEGFRSTVVYDDLHLTVDTVLDGGGVAFVSSCLVNKYLENGQLKQHRVEGFCHSRQRTVALSRSKVQDRLVSDFLACLDTVFTDQCHRSSCPT, MGSDKIHHHHHHMETSAPRAGSQVVATTARHSAAYRADPLRVSSRDKLTEMAASSQGNFEGNFESLDLAEFAKKQPWWRKLFGQESGPSAEKYSVATQLFIGGVTGWCTGFIFQKVGKLAATAVGGGFFLLQLANHTGYIKVDWQRVEKDMKKAKEQLKIRKSNQIPTEVRSKAEEVVSFVKKNVLVTGGFFGGFLLGMAS, MGSDKIHHHHHHMEVKELERDKNRVVLEYVFGAEEIAQAEDKAVRYLNQRVEIPGFRKGRIPKNVLKMKLGEEFQEYTLDFLMDLIPDTLKDRKLILSPIVTERELKDVTARVVVEVHEEPEVRIGDISKIEVEKVDEEKVLEKYVERRIEDLRESHALLEPKEGPAEAGDLVRVNMEVYNEEGKKLTSREYEYVISEDEDRPFVKDLVGKKKGDVVEIEREYEGKKYTYKLEVEEVYKRTLPEIGDELAKSVNNEFETLEQLKESLKKEGKEIYDVEMKESMREQLLEKLPEIVEIEISDRTLEILVNEAINRLKREGRYEQIVSSYESEEKFREELKERILDDIKRDRVIEVLAQEKGISVNDEELEKEAEELAPFWGISPDRAKSLVKARQDLREELRWAILKRKVLDLLLQEVKVKVVEPKGEGDDSEGKEDN, MGSDKIHHHHHHMFEIKVSQEIKNACPVFAGAAVYAAVKNTAYCDGLWKEINTFTEDLTTTTQMADIKLQPVIAATREAYKRCGKDPGRYRPSAEALRRRLMRGIPLYQIDTLVDLINLVSLRTGHSIGGFDADKIQGNHLELGIGKAEEPFEGIGRGILNIEGLPVYRDSFGGIGTPTSDHERTKMDIGTTHILAIVNGYNGKEGLKEAAEMIQSLLKDYAGSDGGELIYFE, MGSDKIHHHHHHMFETITPESIKENILNELALVDVREGSYTNNLVSPTALAIWKLYDSLNALIPMVYVDETSGVYIDKKAAHYGITRKSGTKATAVLHFTGVDGKVVPKGTVFLTGDGLEFVTESAVTITAGAARTTAIAAEAGEAYNVPGGSITQQIVSISGLTGVTNDAAVGGTDPESDKSLVERLYAYLRKPATSGNVYHYEQWALAVDGVGGVKVAPLWNGPGTVKVLIVSPAKAPVDQEVVTRCADHIQQNRPIGAAVTVESASALMINVEATITIESTTTKSAVKEAFANSLNAYLQSIAFEKYELIYNRLAFMLLDIEGVIDYEDLTVNGGTSNITIAANEVPVAGMVVIS, MGSDKIHHHHHHMFGLIGHLTSLEHAQAVAQELGYPEYADQGLDFWCSAPPQIVDSIIVTSVTGQQIEGRYVESCFLPEMLASRRIKAATRKILNAMAHAQKHGINITALGGFSSIIFENFKLEQFSQVRNIKLEFERFTTGNTHTAYIICKQVEEASKQLGINLSNATVAVCGATGDIGSAVTRWLDARTDVQELLLIARDQERLKELQGELGRGKIMGLTEALPQADVVVWVASMPRGVEIDPTTLKQPCLLIDGGYPKNLATKIQYPGVHVLNGGIVEHSLDIDWKIMKIVNMDVPARQLFACFAESMLLEFEKLYTNFSWGRNQITVDKMEQIGRVSVKHGFRPLLV, MGSDKIHHHHHHMFKKLAADLTGFSDIGQVIHPDDFDKAAADDYVLHEDGEKIYFLIKSKTDEYCFTNLALVHLDGESAVSSKRVLYRYPYAHYPIRHVMFETAGTVDLDVEIKFEIGGKHYSIDVDKKQLEHVKDLYKALLAIAEKQYEGQKMLEFANSSLNHSVTILGGLRQGDMNVPQTFKDLSQESFDWLQGHYYKWNQKDFGSFYEKYINN, MGSDKIHHHHHHMFKPQGLYDYICQQWQEEILPSLCDYIKIPNKSPHFDAKWEEHGYMEQAVNHIANWCKSHAPKGMTLEIVRLKNRTPLLFMEIPGQIDDTVLLYGHLDKQPEMSGWSDDLHPWKPVLKNGLLYGRGGADDGYSAYASLTAIRALEQQGLPYPRCILIIEACEESGSYDLPFYIELLKERIGKPSLVICLDSGAGNYEQLWMTTSLRGNLVGKLTVELINEGVHSGSASGIVADSFRVARQLISRIEDENTGEIKLPQLYCDIPDERIKQAKQCAEILGEQVYSEFPWIDSAKPVIQDKQQLILNRTWRPALTVTGADGFPAIADAGNVMRPVTSLKLSMRLPPLVDPEAASVAMEKALTQNPPYNAKVDFKIQNGGSKGWNAPLLSDWLAKAASEASMTYYDKPAAYMGEGGTIPFMSMLGEQFPKAQFMITGVLGPHSNAHGPNEFLHLDMVKKLTSCVSYVLYSFSQKK, MGSDKIHHHHHHMFLQPLLAKKIIAEVKKMYEREVIIVNTDGLIMAGTNDERVGQFHEGALICAKERRSVIITKEDETRLKGVKAGINLPVFFDHDVISVFGLTGEPAEIQPFGELLRKMTELFIKESRHLEQSQWRERMLESFMIDWLQLKEWSPSFLEKAQLLGVDLSSRRQMILIQGYEWSPHDIEQMARSWKSSYPADLFIRWGNERILINHEVPQHEQRDRLLRKILHICSFANTASSQYTAAGAGRAVASSSLTDSYEQAEKALAVSLKRKTPIFEEDLKLDMCLTEISPGTRNEFPQRVLGKALEHQELMNTIRTFFHHDLSLKQTAEDMHIHINTLRYRLAKAEQLTGLRFDRTEDVVTMYVALYFLDQDTK, MGSDKIHHHHHHMFNEDTKFASPYEINVLNELTGKNFQEDDLILLEKLSGMDYRKRVYVSEDQIGTLEFDLLDLTWKFIPSPLYYMIEDPKISLKYTKKRLKGKYIKEELLENPEELNEALKDNFEYIGVKIGDFLGVGVRKEDRVKVKDLSRKKELDFQKIADYLEYNKEYLDEMVENSIEILQDAVEKYKRKGYAINASFSGGKDSAVCTLISKEVIPDLDVVFIDTGLEYPETLNYVKDFVDKYDINLDTVDGDNFWDNLEKEGIPTKDNRWCNSACKLMPLKRYLKKKYGNKKVLTIDGSRKYESFTRANLDYERRSGFIDFQTNVFPILDWNSIDIWSYIYSKDIPYNPMYDKGFERIGCYLCPSALNSEFLRVKELHPDYFERWVKYLKKYFPESEVLRGFWRWDELPPKMVELEENMGVDIDKKKRLKRITQL, MGSDKIHHHHHHMFQSDLKLIVFQHGFFGERFVANLMNYPNSCPSYGACGIDGCTQCKEGLYNFSKNIIAVFSMPDPTTMPDFIENAEDFLPKVIPEADIAVAINLHPDVLAVMPEKLKGKVKALIVPVEEPRWCSPGLAKQIREKCDELGLEFAAPKPFCNLRPSEEHPTINRMIEEMRIGYPEFEIELLEDGKAYVRISRSQPCGCAYYIGVKLRGFDFSEVKEGKMRELWNVVAEAHHSYPCTASMERDNEYNETLLHVGGYIARHAVNRALGYEGDEDIPEHIKHIVL, MGSDKIHHHHHHMFRILTINPGSTSTKLSIFEDERMVKMQNFSHSPDELGRFQKILDQLEFREKIARQFVEETGYSLSSFSAFVSRGGLLDPIPGGVYLVDGLMIKTLKSGKNGEHASNLGAIIAHRFSSETGVPAYVVDPVVVDEMEDVARVSGHPNYQRKSIFHALNQKTVAKEVARMMNKRYEEMNLVVAHMGGGISIAAHRKGRVIDVNNALDGDGPFTPERSGTLPLTQLVDLCFSGKFTYEEMKKRIVGNGGLVAYLGTSDAREVVRRIKQGDEWAKRVYRAMAYQIAKWIGKMAAVLKGEVDFIVLTGGLAHEKEFLVPWITKRVSFIAPVLVFPGSNEEKALALSALRVLRGEEKPKNYSEESRRWRERYDSYLDGILR, MGSDKIHHHHHHMFRTVALTGATGFIGRVLIAKLAASGWKVRALARRVPFRQDLPLVEWICGDMNCDSVLCDLVSGTEAVIHCAGAIRGKSWDDFSRTNVTGTRNILRAASGAPSCSRFLFISSLAAREPHLSWYARSKFEAEQLIPGFSGLASTVFRPAAVYGLGDKAMQPFFQAMRYGILLVPGDPGNRFGLIHVDDMVAAIHNWLEAGQPVKGTYEIDDGTSGGYDYTSIAALAEQVLSRPVHCLQIPLGGIRMLARFNLWLAHLLNYAPILTPGKVMEFQHPDWTCDISSLKRELAGWSPVTKLETVLPLLVRM
